This note sets out measurements from patent publication US8835467B2, “SIR2 regulation” (Albert Einstein College of Medicine of Yeshiva University, priority 2003, dated 2014).

For orientation: Km means the concentration of substrate that gives half-maximal velocity.

In the series the test system is NC(=O)c1cccnc1. The experiment in a line: Sir2 catalyzed base exchange with H4 N-terminal peptide. It counts as biochemical, yeast. Particulars: other: 0 mM isonicotinamide.

Take “Yeast Sir2 (Saccharomyces cerevisiae S288C)”: the Km is 120 µM.
